Source: patent US8394380B2, “Compositions and methods for alzheimer's disease” (Primex Clinical Laboratories, Inc., priority 2004, dated 2013)
Where two headings read alike, the source gives them in different places. Positions of bridges follow the written chain, without caps; N, C: chain ends. No end group written: not given here.

Assays:
[1] = tested on: primary cultures of hippocampal neurons and mixed cortical neurons; details: cited from earlier work
[2] = tested on: rat cultured hippocampal neurons
Experimental: (§2) Primary cultures of hippocampal neurons were prepared from 17-18 day gestational Wistar rat embryos as described previously (Brewer et al., 1993) with some modifications (Massieu et al., 2003). Briefly, after dissection, 10-12 hippocampi were chopped into 300-μm cubes, incubated in a 0.25% trypsin solution, and dispersed by trituration in a 0.08% DNAase and 0.52% soybean trypsin inhibitor containing solution. Cells were suspended in Neurobasal culture medium (GIBCO/Life technologies, Rockville Md., USA) (Brewer et al. 1993) supplemented with B27 (Minus AO GIBCO/life technologies, Rockville, Md., USA), 0.5 mM L-glutamine, 20 μg/ml gentamicin, and 0.2 mM glutamate, and plated at a density of 260-290×10^3/cm^2 in Costar 48-well plates (Cambridge, Mass., USA), precoated with poly-L-lysine (5 μg/ml). Cells were cultured for 6 days in vitro (DIV) at 37° C. in a humidified 5% CO2/95% air atmosphere. Glucose (5 mM) and cytosine arabinoside (10 μM) were added to cultures 4 days after plating.
(§3) The effect of individual treatments of the different peptides on cell viability was also tested. Aβ42 was pre-incubated at 37° C. during 48 h to promote its aggregation and increase neurotoxicity. Cell viability was assessed by the MTT (3-(4,5-dimethylthiazol-2-yl)-2,5-diphenyltetrazolium bromide) dye reduction assay (Mosmann, 1983) as previously described (Garcia and Massieu, 2001). The assay is based on the ability of living mitochondria to convert MTT into insoluble formazan by active dehydrogenases.
(§4) In brief, 72 h after exposure to Aβ42, cell cultures were incubated with MTT (150 μM) during a 1 h period at 37° C. in a 5% CO2/95% O2-containing atmosphere. The medium was aspirated, and the precipitated formazan was solubilized with 0.480 ml isopropanol. After solubilization, isopropanol was transferred to eppendorf tubes, centrifuged (18 000 rpm for 30 s) and the optical density in the supernatant measured at 570 nm in a spectrofluorometer (Beckman DU-640). Cell damage was expressed as percent reduction in mitochondrial activity relative to control cultures. Data were expressed as means±SE (standard error) of 4 independent experiments.

[3] = tested on: rat cultured hippocampal neurons; test: Neuroprotection assay, Aβ42-induced neurotoxicity, MTT reduction
Experimental: as §2, §3, §4

Aβ42 [4] = target: T1, Aβ42 (Homo sapiens, UniProt P05067); test: ELISA using CDR-based synthetic peptides: biotinylated Aβ42 added to peptide-coated plates; format: binding
Experimental: ELISA analysis was carried out using MaxiSorp microtiter plates coated overnight with synthetic peptide at a concentration of 10 μg/ml in carbonate buffer. After washing, plates were blocked with PBS/2% BSA for 1 h at 37° C. After incubation and a washing step, biotinylated Aβ42 was added to each well. Plates were again incubated for 1 h at 37° C., washed, and reacted with an avidin-peroxidase conjugate diluted 1:500 (Pharmingen, San Jose, Calif., USA) followed by the ABTS single solution (Zymed) as described above.

Aβ42 [5] = target: T1, Aβ42; test: Competition ELISA: binding of biotinylated Aβ42 to immobilized cyclic C44; details: competitor pre-incubated with biotinylated Aβ42 overnight at 4° C., N44 linear
Experimental: For competition ELISA, cyclic C44 and linear N44 were diluted in PBS/1% BSA and incubated with biotinylated Aβ42 overnight at 4° C. prior to addition to plates coated with cyclic C44.

human Aβ42 (wild-type) = target: T2, human Aβ42 (wild-type) (Homo sapiens, UniProt P05067); test: ELISA binding of phage-displayed scFv / serum to Aβ42-coated wells; details: control wild type phage M13
T2 construct: coated overnight with 2 μg/ml of wild-type Aβ42 (BACHEM Bioscience Inc); purchased BACHEM Bioscience Inc
Experimental: One week after the fourth immunization, mouse sera were tested in ELISA for the presence of specific anti-Aβ42 antibodies. Briefly, a 96-well plate (Nunc, Roskilde, Denmark) was coated with 1 μg/ml of Aβ42 in phosphate buffer (pH 7.8) overnight at 4° C. The plate was washed with phosphate buffer containing 0.1% Tween-20 (PBS-Tween) and blocked with PBS containing 2% bovine serum albumin (PBS-BSA). After washing, mouse sera diluted in PBS-BSA 1% was added, and the plate was incubated for 1 h at 37° C. The plate was washed and goat anti-mouse IgG conjugated with HRP (Zymed, San Francisco, Calif., USA) was added. After incubation for 1 h at 37° C., the plate was washed and 2,2′-azino-bis-(3-ethyl-benzothiazoline-6-sulphonic acid (ABTS) single solution (Zymed) was added. The OD reading at 405 was registered using Opsys MR Microplate Reader (DYNEX Technologies, Chantilly, Va., USA).
Fresh 2×YT without glucose but supplemented with ampicillin and kanamycin was added to each well, and plates were incubated overnight at 30° C. with shaking Microtiter plates (Nunc) were coated with Aβ and blocked as described above, supernatants from plates containing phage were added, and after incubation for 1 h at 37° C., plates were washed with PBS-Tween. […] The OD reading at 405 was registered using Opsys MR Microplate Reader (DYNEX Technologies). […]

[6] = target: T3, Flemish (A21G) mutant Aβ42 (Homo sapiens, UniProt P05067, A692G); test: ELISA binding of phage-displayed scFv to Flemish mutant Aβ42; details: control wild type phage M13
T3 construct: mutant Aβ42 (SynPep Corp., CA, USA); purchased SynPep Corp
Experimental: (§1) Microtiter plates were coated with Aβ42 and blocked as described above, 10^10 of each phage clone were added, and after incubation for 1 h at 37° C., plates were washed with PBS/Tween. An anti-M13 monoclonal HRP (horseradish peroxidase) conjugate (Amersham Pharmacia Biotech, USA) diluted in PBS/1% BSA was then added to the plates followed by an incubation for 1 h 37° C. Plates were washed and the ABTS (2,2′-azino-bis(3-ethylbenzothiazoline-6-sulfonic acid) single solution (Zymed, San Francisco, Calif., USA) was added. The OD 405 nm readings were measured using Opsys MR Microplate Reader (DYNEX Technologies, Inc., Chantilly, Va., USA). An identical ELISA procedure was performed using Flemish (containing an A to G substitution at aa21; i.e. A21G) and Dutch (containing an E to Q substitution at aa22; E22Q) mutant Aβ42 (SynPep Corp., CA, USA).

Dutch (E22Q) mutant Aβ42 = target: T4, Dutch (E22Q) mutant Aβ42 (Homo sapiens, UniProt P05067, E693Q); test: ELISA binding of phage-displayed scFv to Dutch mutant Aβ42; details: control wild type phage M13
T4 construct: mutant Aβ42 (SynPep Corp., CA, USA); purchased SynPep Corp
Experimental: as §1

Aβ1-28 = Aβ1-28 (Homo sapiens, UniProt P05067); test: ELISA binding of phage-displayed scFv to Aβ1-28; details: control wild type phage M13
[7] = plates coated with peptide 10 μg/ml
[8] = peptide in cyclic form, 40 μM with Aβ42 40 μM, 72 h
[9] = peptide in linear form, 40 μM with Aβ42 40 μM, 72 h

Molecule: CC[C@H](C)C(=O)O[C@H]1C[C@@H](C)C=C2C=C[C@H](C)[C@H](CC[C@@H]3C[C@@H](O)CC(=O)O3)[C@H]21 [lovastatin]
- intracellular and extracellular levels of Aβ [1]: reduce

Molecule: ASVRGWYVRSVFDPA [N44]
- effect of peptide alone on basal MTT reducing capacity [2]: Neither N44 nor C44 (either the linear or cyclic forms) alone altered basal MTT reducing capacity

Molecule: Aβ42: human amyloid-beta peptide, pre-aggregated, used as neurotoxic insult [reference compound]
- decrease in mitochondrial activity ([3]; Aβ42 40 μM alone, 72 h): 24.3%

Molecule: CADWRYRSVFGPVSVAC (disulfide 1-17 (inferred)) [Scr44, reference compound]
- OD405, binding of biotinylated Aβ42 to coated peptide (Aβ42 [4]; peptide in cyclic form, negative control): 0.25±0.03
- binding to Aβ42 in ELISA (Aβ42 [4]; [7]): did not bind

Molecule: CASVRGWYVRSVFDPAC (cyclic or linear) [C44]
- binding to Aβ42 in ELISA (Aβ42 [4]; cyclic peptide, S—S bond reduced with β-mercaptoethanol): abolished completely
- binding to Aβ42 in ELISA (Aβ42 [4]; linear form after spontaneous air oxidation, overnight agitation): restored
- binding to Aβ42 in ELISA (Aβ42 [4]; peptide in cyclic form): recognized
- binding to Aβ42 in ELISA (Aβ42 [4]; peptide in its linear form): weak recognition
- effect of peptide alone on basal MTT reducing capacity ([3]; peptide alone, without Aβ42): Neither N44 nor C44 (either the linear or cyclic forms) alone altered basal MTT reducing capacity
- neuroprotective effect ([3]; peptide in cyclic form): 53.6%
- decrease in mitochondrial activity when co-incubated with Aβ42 [3, 8]: 11.9%
- protection against Aβ42 neurotoxicity [3, 8]: showed protection
- neuroprotective effect ([3]; peptide in linear form): 69.3%
- prevention of Aβ42 neurotoxicity [3, 9]: significantly prevented
- reduction in mitochondrial activity when co-incubated with Aβ42 [3, 9]: 7.7%
- inhibition of binding of Aβ42 to immobilized cyclic C44 (Aβ42 [5]): inhibited, in a dose dependent manner

Molecule: IWGCSGKLICTTAVP (not fully specified (bridges); also: cyclic, ring type not given here) [GM15, reference compound]
- binding to Aβ42 in ELISA (Aβ42 [4]; [7]): did not bind

B1: b4.6: phage-displayed human anti-Aβ42 scFv, SEQ ID NO:12, HCDR3 SHYWDS (protein)
scFv: QVQLQESGPGLVKPSETLSLTCSVSGGSVSSGNYYWTWIRQPPGKGLEWIGYIYSSGSTSYNPSLMSRVTISLDMSKNQFSLRLTSVTAADTAVYYCARSHYWDSWSPGTLVTVSSGGGGSGGGGSGGGGSDIVMTQSPSSMSASVGDTVTIACRASRDIRNDLAWYQQKPGKAPKLLIYAASRLQSGVPSRFSGSGSFTDFTLTIQLCLQPDDFATYYCLQDSDYPLTFGGGTKLEIKR
- binding to wild type Aβ42 in ELISA (human Aβ42 (wild-type)): bound
- binding to Flemish mutant Aβ42 in ELISA [6]: bound
- binding to Dutch mutant Aβ42 in ELISA (Dutch (E22Q) mutant Aβ42): not statistically different from control phage M13
- binding to Aβ1-28 in ELISA (Aβ1-28): not statistically different from control phage M13
